Legend:
FPPS synthase assay [1] = substrate: CC(C)=CCC/C(C)=C/COP(=O)(O)OP(=O)(O)O; experiment: FPPS synthase assay; format: biochemical, Homo sapiens; conditions: co-substrate IPP
Text: (§1) FPPS synthase assay on human farnesyl pyrophosphate synthase (FPPS; wtFPPS)

FPPS synthase assay [2] = substrate: C=C(C)CCO[P@@](=O)(O)OP(=O)(O)O; experiment: FPPS synthase assay; format: biochemical, Homo sapiens; conditions: co-substrate GPP
Text: as §1

B1: human farnesyl pyrophosphate synthase (FPPS; wtFPPS) (Homo sapiens) (protein)
chain: MNGDQNSDVYAQEKQDFVQHFSQIVRVLTEDEMGHPEIGDAIARLKEVLEYNAIGGKYNRGLTVVVAFRELVEPRKQDADSLQRAWTVGWCVELLQAFFLVADDIMDSSLTRRGQICWYQKPGVGLDAINDANLLEACIYRLLKLYCREQPYYLNLIELFLQSSYQTEIGQTLDLLTAPQGNVDLVRFTEKRYKSIVKYKTAFYSFYLPIAAAMYMAGIDGEKEHANAKKILLEMGEFFQIQDDYLDLFGDPSVTGKIGTDIQDNKCSWLVVQCLQRATPEQYQILKENYGQKEAEKVARVKALYEELDLPAVFLQYEEDSYSHIMALIEQYAAPLPPAVFLGLARKIYKRRK
notes: recombinant, pET-28a based LIC vector; TEV protease-cleaved for crystals; homodimer of 42 kDa monomers
Km (FPPS synthase assay [1]): 2.1 ± 0.2 µM | kcat (FPPS synthase assay [1]): 0.42 s⁻¹ | kcat/Km (FPPS synthase assay [1]): 200000 M⁻¹ s⁻¹ | Km (FPPS synthase assay [2]): 1.8 ± 0.3 µM | kcat (FPPS synthase assay [2]): 0.42 s⁻¹ | kcat/Km (FPPS synthase assay [2]): 230000 M⁻¹ s⁻¹

— publication PMC4652608, “The inhibition of human farnesyl pyrophosphate synthase by nitrogen-containing bisphosphonates. Elucidating the role of active site threonine 201 and tyrosine 204 residues using enzyme mutants^” (Bone, 2015)
